Assays:
Test in all cases: co-IP: anti-FLAG M2 immunoprecipitates immunoblotted with anti-CHIP
[1] = molecular target: T1, FLAG (F)-tagged hsp90α K292R mutant (UniProt P07900 1-732)
T1 construct: Made by site-directed mutagenesis, expressed by transfection; also called K/R mutant at K292; acetylation-deficient mutant; not shown: FLAG tag
Method: (§1) Following culture in the plates for 24 hours, cells were transfected by Lipofectamine Plus following the protocol provided by Invitrogen (Carlsbad, Calif.). Transfected cells were cultured in full-medium containing drugs dissolved in DMSO or vehicle for 24 hours. Cellular extracts were prepared by directly adding lysis buffer (25 mM Tris-phosphate, pH 7.8, 2 mM DTT, 2 mM 1,2-diaminocyclohexane-N′,N′,N′,N′-tetraacetic acid, 10% glycerol, 0.2% Triton X-100) to the cells on ice. For immuno-precipitations (IP), 2×10⁶ cells in 100 mm dishes were transfected and/or treated as described above. Cellular extracts were prepared and immunoprecipitation performed as described 24. For immunoblotting, cellular extracts or immunoprecipitates were separated on SDS-PAGE, transferred to a nitrocellulose membrane, probed with antibodies, and visualized with enhanced chemiluminescence, as described (Chen, Z., et al., Mol. Pharmacol., 69:1527-33 (2006)).
(§2) The mutants were also analyzed for their ability to bind ATP, as well as for binding to co-chaperones, client proteins and the biotinylated (B) GA (geldanamycin) (Kamal, A., et al., Nature., 425:407-10 (2003)). Precipitates from the mixture of cell lysates containing hsp90α and ATP-sepharose were analyzed with anti-F antibody.

[2] = molecular target: T2, FLAG (F)-tagged hsp90α K478R mutant (UniProt P07900 1-732)
T2 construct: Made by site-directed mutagenesis, expressed by transfection; also called K/R mutant at K478; acetylation-deficient mutant; not shown: FLAG tag
Method: as §1, §2

[3] = molecular target: T3, FLAG (F)-tagged hsp90α K292Q mutant (UniProt P07900 1-732)
T3 construct: Made by site-directed mutagenesis, expressed by transfection; also called K/Q mutant at K292; acetylation-mimetic mutant; not shown: FLAG tag
Method: as §1, §2

[4] = molecular target: T4, FLAG (F)-tagged hsp90α K558R mutant (UniProt P07900 1-732)
T4 construct: Made by site-directed mutagenesis, expressed by transfection; also called K/R mutant at K558; acetylation-deficient mutant; not shown: FLAG tag
Method: as §1, §2

[5] = molecular target: T5, FLAG (F)-tagged hsp90α K546R mutant (UniProt P07900 1-732)
T5 construct: Made by site-directed mutagenesis, expressed by transfection; also called K/R mutant at K546; acetylation-deficient mutant; not shown: FLAG tag
Method: as §1, §2

[6] = molecular target: T6, FLAG (F)-tagged hsp90α (wild type) (UniProt P07900 1-732)
T6 construct: Expressed from a plasmid described in cited literature, or translated in vitro; also called F-hsp90α; F-hsp90; not shown: FLAG tag
Method: as §1, §2

[7] = molecular target: T7, FLAG (F)-tagged hsp90α K69R mutant (UniProt P07900 1-732)
T7 construct: Made by site-directed mutagenesis, expressed by transfection; also called K/R mutant at K69; acetylation-deficient mutant; not shown: FLAG tag
Method: as §1, §2

[8] = molecular target: T8, FLAG (F)-tagged hsp90α K327R mutant (UniProt P07900 1-732)
T8 construct: Made by site-directed mutagenesis, expressed by transfection; also called K/R mutant at K327; acetylation-deficient mutant; not shown: FLAG tag
Method: as §1, §2

[9] = molecular target: T9, FLAG (F)-tagged hsp90α K100R mutant (UniProt P07900 1-732)
T9 construct: Made by site-directed mutagenesis, expressed by transfection; also called K/R mutant at K100; acetylation-deficient mutant; not shown: FLAG tag
Method: as §1, §2

Measured: binding result

B1: CHIP (other, UniProt Q9UNE7 1-303, looked up)
chain: MKGKEEKEGGARLGAGGGSPEKSPSAQELKEQGNRLFVGRKYPEAAACYGRAITRNPLVAVYYTNRALCYLKMQQHEQALADCRRALELDGQSVKAHFFLGQCQLEMESYDEAIANLQRAYSLAKEQRLNFGDDIPSALRIAKKKRWNSIEERRIHQESELHSYLSRLIAAERERELEECQRNHEGDEDDSHVRAQQACIEAKHDKYMADMDELFSQVDEKRKKRDIPDYLCGKISFELMREPCITPSGITYDRKDIEEHLQRVGHFDPVTRSPLTQEQLIPNLAMKEVIDAFISENGWVEDY
notes: Endogenous protein co-immunoprecipitated from cell lysates and detected with anti-CHIP
binds: all assays above

— patent US20100111943A1 (MEDICAL COLLEGE OF GEORGIA RESEARCH INSTITUTE, published 2010)
